# According to publication PMC3835729:
# B1: human histidine triad nucleotide binding protein 1 (hHint1) (Homo sapiens; H114A) (protein)
# chain: ADEIAKAQVARPGGDTIFGKIIRKEIPAKIIFEDDRCLAFHDISPQAPTHFLVIPKKHISQISVAEDDDESLLGHLMIVGKKCAADLGLNKGYRMVVNEGSDGGQSVYHVHLAVLGGRQMHWPPG
# Substrate: Nc1ncnc2c1ncn2[C@@H]1O[C@H](COP(=O)(O)OC(=O)CCc2c[nH]c3ccccc23)[C@@H](O)[C@H]1O
# Assay: purified protein
# Settings: 20 mM HEPES, 1 mM MgCl2, pH 7.2, 25 °C
protein,measurement,value
B1,Km,0.12 ± 0.01 µM
same,kcat,0.69 ± 0.05 s⁻¹
same,kcat/Km,6e+06 ± 1e+06 M⁻¹ s⁻¹
